Where two headings read alike, the source gives them in different places.
Columns and labels:
human FcγRI, His6-tagged = target: T1, human FcγRI, His6-tagged (human, UniProt P12314 16-288); test: SPR, 1:1 kinetic
T1 construct: also called FcG RI
Description: (§1) Interaction affinities for IgGs were determined by surface plasmon resonance using a BIACORE® T200 instrument. For most analyses, His6-tagged FcγRI, FcγRIIa (167R and 167H variants), FcγRIIb, FcγRIIIa (176F and 176 V variants), and FcγRIIIb receptors (all Sino Biological) were captured on a CM5 sensor chip coated with an anti-HIS antibody by standard amine coupling. Receptor-specific formats of analyses were then applied, as below.
Regeneration with 2× injections glycine pH 1.5 and analysis using 1:1 fit.

[1] = target: T2, human FcγRIIa 167H variant, His6-tagged (human, UniProt P12318 34-218); test: SPR, steady state
T2 construct: also called FcG RIIa (167H)
T2 sequence (looked up): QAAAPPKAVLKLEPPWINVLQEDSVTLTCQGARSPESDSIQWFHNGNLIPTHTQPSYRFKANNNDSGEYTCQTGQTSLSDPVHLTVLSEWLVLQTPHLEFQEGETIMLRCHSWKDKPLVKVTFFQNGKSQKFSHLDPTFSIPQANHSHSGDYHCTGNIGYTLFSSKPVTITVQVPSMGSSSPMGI
Description: as §1

[2] = target: T3, human FcγRIIb, His6-tagged (human, UniProt P31994 43-217); test: SPR, steady state
T3 construct: also called FcG RIIb
T3 sequence (looked up): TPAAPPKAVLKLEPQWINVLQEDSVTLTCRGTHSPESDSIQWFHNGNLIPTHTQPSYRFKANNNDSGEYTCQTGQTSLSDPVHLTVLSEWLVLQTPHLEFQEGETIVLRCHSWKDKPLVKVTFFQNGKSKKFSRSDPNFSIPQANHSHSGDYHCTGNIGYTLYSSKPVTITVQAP
Description: as §1

[3] = target: T4, human FcγRIIIa 176F variant, His6-tagged (human, UniProt P08637 17-208); test: SPR, steady state
T4 construct: also called FcG RIIIa (176F)
Description: as §1

[4] = target: T5, human FcγRIIIa 176V variant, His6-tagged (human, UniProt P08637 17-208); test: SPR, steady state
T5 construct: also called FcG RIIIa (176V)
Description: as §1

[5] = target: T6, human FcγRIIIb, His6-tagged (human, UniProt O75015 17-200); test: SPR, steady state
T6 construct: also called FcG RIIIb
Description: as §1

[6] = target: T7, human FcγRIIa 167R variant, His6-tagged (human, UniProt P12318 34-218); test: SPR, steady state
T7 construct: also called FcG RIIa (167R)
T7 sequence (looked up): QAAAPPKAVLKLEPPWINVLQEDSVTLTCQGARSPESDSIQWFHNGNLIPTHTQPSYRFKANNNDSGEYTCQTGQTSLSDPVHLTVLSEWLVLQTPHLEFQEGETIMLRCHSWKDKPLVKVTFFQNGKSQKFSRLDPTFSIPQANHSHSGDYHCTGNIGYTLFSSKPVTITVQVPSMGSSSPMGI
Description: as §1

human FcRn = target: T8, human FcRn (human, UniProt P55899 24-297, limits assumed); test: SPR, steady state, pH 6
T8 construct: also called hFcRn
Description: The interactions between monomeric IgG and FcRn are relatively low affinity and pH-sensitive interactions, so ‘steady state’ affinity analyses were performed under the following conditions: A CM5 chip was directly coupled with hFcRn in sodium acetate pH 5.5 using standard amine chemistry. Running buffer was PBS 0.05% P20+150 mM NaCl (pH 6.0 or pH 7.4), flow rate 30 μl/min, 5 point three-fold dilutions of purified antibodies from 3000 nM to 37.0 nM applied with an association time of 18s, dissociation time 100 s.

[7] = target: T9, cynomolgus monkey C-KIT-Fc protein (cynomolgus monkey); test: direct ELISA, IgG at 1 µg/ml
T9 construct: also called cyno C-KIT-Fc; cyno C-KIT

[8] = target: T9, cynomolgus monkey C-KIT-Fc protein; test: HTRF competition vs terbium-labelled h37M IgG1
[9] = target: T9, cynomolgus monkey C-KIT-Fc protein; test: HTRF competition vs terbium-labelled h37M IgG1; remark: listed apart in the source

T1 sequence (P12314 16-288 limits assumed): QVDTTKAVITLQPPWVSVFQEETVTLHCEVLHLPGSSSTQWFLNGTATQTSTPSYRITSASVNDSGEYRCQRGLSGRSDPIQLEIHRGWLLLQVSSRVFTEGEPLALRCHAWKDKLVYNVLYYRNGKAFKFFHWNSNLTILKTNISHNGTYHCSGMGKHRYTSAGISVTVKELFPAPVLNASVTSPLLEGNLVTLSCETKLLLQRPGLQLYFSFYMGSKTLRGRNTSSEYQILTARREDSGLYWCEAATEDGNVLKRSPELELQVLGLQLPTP
T5 sequence (P08637 other isoform, or with tags, fused parts or gaps mutant limits assumed): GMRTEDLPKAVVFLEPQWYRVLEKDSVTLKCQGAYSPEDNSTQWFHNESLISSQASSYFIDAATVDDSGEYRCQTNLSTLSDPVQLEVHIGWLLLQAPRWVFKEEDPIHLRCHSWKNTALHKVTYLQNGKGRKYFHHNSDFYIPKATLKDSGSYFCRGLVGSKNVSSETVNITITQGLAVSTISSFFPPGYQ
T6 sequence (O75015 17-200 limits assumed): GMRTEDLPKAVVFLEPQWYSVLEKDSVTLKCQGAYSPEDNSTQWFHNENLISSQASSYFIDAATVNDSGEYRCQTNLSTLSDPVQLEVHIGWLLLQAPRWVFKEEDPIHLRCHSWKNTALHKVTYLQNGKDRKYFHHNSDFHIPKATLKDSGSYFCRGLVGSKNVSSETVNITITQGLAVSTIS
T4 sequence (P08637 17-208 limits assumed, change not shown): as the sequence (P08637 other isoform, or with tags, fused parts or gaps mutant limits assumed) above, with V160F counted along it
T8 sequence (P55899 24-297 limits assumed, form in doubt): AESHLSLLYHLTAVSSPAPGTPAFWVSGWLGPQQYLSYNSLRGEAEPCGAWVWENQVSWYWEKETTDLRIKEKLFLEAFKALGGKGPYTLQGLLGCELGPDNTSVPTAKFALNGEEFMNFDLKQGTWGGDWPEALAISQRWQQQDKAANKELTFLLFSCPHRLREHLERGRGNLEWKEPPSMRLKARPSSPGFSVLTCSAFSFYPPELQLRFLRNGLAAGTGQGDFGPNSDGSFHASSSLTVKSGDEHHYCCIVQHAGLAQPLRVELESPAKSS

Kd (human FcγRI, His6-tagged): 1.06 nM
Kd [1]: 512 nM
Kd [2]: 1440 nM
Kd [3]: 82 nM
Kd [4]: 41.1 nM
Kd [5]: 249 nM
Kd [6]: 447 nM
Kd (human FcRn): 1240 nM
OD450 nm [7]: > 2 OD450 nm
IC50 [8]: 0.035 µg/mL
IC50 [9]: 0.036 µg/mL
B1: h37M IgG1 (antibody)
heavy: not shown
VL: DIVMTQSPSSLSASVGDRVTITCKASQNVRTNVAWYQQKPGKAPKALIYSASYRYSGVPDRFTGSGSGTDFTLTISSLQPEDFADYFCQQYNSYPRTFGGGTKVEIK
notes: Humanized 37M, human IgG1; Terbium-labelled as tracer in HTRF; also called C-KIT-h37M; IgG1-h37M; copies: 2 + 2

Source: patent US20230212285A1 (published 2023)
